# Test results: the Human Domainome abundance scans (Beltran et al. 2025)
# ± gives the uncertainty stated by the source.
# B1: POU domain, class 2, transcription factor 2, residues 200 to 269; numbered along this chain, P09086 (parent)
# chain: LEELEQFARTFKQRRIKLGFTQGDVGLAMGKLYGNDFSQTTISRFEALNLSFKNMCKLKPLLEKWLNDAE
# Variants of: B1
# Test: abundance fitness (aPCA) (normalised: wild type 0, dead -1); higher = more abundant; growth selection in yeast, the domain comes from the species named
# Details: Homo sapiens
row,Variant,abundance fitness
1,T41V,0.024 ± 0.076
2,T41N,-0.062 ± 0.092
3,T41F,-0.114 ± 0.097
4,T41K,-0.09 ± 0.027
5,T41S,-0.059 ± 0.058
6,T41D,0.029 ± 0.14
7,L18N,-0.044 ± 0.094
8,L18Q,-0.053 ± 0.084
9,L18A,-0.025 ± 0.051
10,L18Y,-0.16 ± 0.067
11,L18T,-0.227 ± 0.052
12,L18H,-0.049 ± 0.12
13,L18D,-0.763 ± 0.17
14,L18S,-0.193 ± 0.051
15,L18E,-0.253 ± 0.061
16,L18P,-1.05 ± 0.13
17,E70C,-0.092 ± 0.12
18,E70F,-0.2 ± 0.19
19,E70N,-0.066 ± 0.16
20,E70K,-0.128 ± 0.085
21,E70D,0.054 ± 0.054

row,Variant,abundance fitness
1,D24N,-0.091 ± 0.058
2,D24M,-0.125 ± 0.078
3,D24W,-0.285 ± 0.045
4,D24T,-0.199 ± 0.075
5,D24P,-0.918 ± 0.099
6,D24Q,0.003 ± 0.053
7,D24K,-0.202 ± 0.067
8,D24S,-0.091 ± 0.043
9,D24Y,-0.095 ± 0.093
10,S51P,0.006 ± 0.034
11,S51G,-0.05 ± 0.034
12,S51R,-0.102 ± 0.035
13,S51Y,-0.461 ± 0.082
14,S51T,0.007 ± 0.04
15,K64I,-0.158 ± 0.14
16,K64W,-0.257 ± 0.072
17,K64N,-0.232 ± 0.11
18,K64A,0.081 ± 0.084
19,K57W,-0.068 ± 0.048
20,K57Y,-0.089 ± 0.11
21,K57E,-0.05 ± 0.062

row,Variant,abundance fitness
1,K57R,-0.064 ± 0.031
2,K57M,0.01 ± 0.049
3,K57C,-0.058 ± 0.048
4,L50H,-0.089 ± 0.056
5,L50N,-0.53 ± 0.1
6,L50I,-0.039 ± 0.05
7,L50T,-0.054 ± 0.052
8,L50P,-0.674 ± 0.066
9,L50W,-0.183 ± 0.043
10,L50Y,-0.174 ± 0.066
11,L50V,-0.036 ± 0.045
12,L32K,0.01 ± 0.077
13,L32D,0.037 ± 0.082
14,L32Y,0 ± 0.084
15,L32I,-0.049 ± 0.087
16,L32A,-0.006 ± 0.05
17,L32S,-0.01 ± 0.046
18,L4W,-0.201 ± 0.04
19,L4I,0.012 ± 0.1
20,L4P,-0.367 ± 0.055
21,L4T,-0.11 ± 0.048

row,Variant,abundance fitness
1,L4K,-0.797 ± 0.12
2,Y33I,-0.076 ± 0.09
3,Y33C,-0.043 ± 0.046
4,Y33W,-0.105 ± 0.049
5,Y33L,-0.024 ± 0.036
6,Y33F,-0.062 ± 0.087
7,Y33E,-0.074 ± 0.062
8,Y33V,-0.06 ± 0.048
9,L48K,0.07 ± 0.076
10,L48S,0.028 ± 0.041
11,L48D,-0.27 ± 0.092
12,L48Q,-0.011 ± 0.06
13,A47L,-0.032 ± 0.037
14,A47D,0.158 ± 0.083
15,A47R,-0.085 ± 0.036
16,A47Q,0.035 ± 0.058
17,E46A,-0.765 ± 0.067
18,E46I,-0.956 ± 0.18
19,E46N,-0.973 ± 0.19
20,L66Q,-0.358 ± 0.076
